4 molecules from PMC5727127 (2017) can be followed below.

Like-named read-outs stand apart in the source and are kept apart here. Where no end group is shown, it is not given here.

Usually Kd stands for the free concentration of one partner at which half of the binding sites on the other are occupied at equilibrium, for simple one-to-one binding.

For experiment [1], the target named is 3TD of SETDB1, Y268A mutant, as used in ITC (UniProt Q15047 190-410, Y268A). The experiment in a line: ITC. (ITC needs no label: the signal is the heat of the interaction.)
In experiment [2] the target is 3TD of SETDB1, R384A mutant, as used in ITC (UniProt Q15047 190-410, alanine mutation of R384). The experiment in a line: ITC.
For experiment [3], the target named is 3TD of SETDB1, W358A mutant, as used in ITC and crystals (UniProt Q15047 190-410, W358A). Kind of experiment: ITC.
The target of experiment [4] is T1, triple Tudor domain (3TD) of SETDB1, wildtype, as used in solution (ITC, NMR, crystals) (UniProt Q15047 190-410). Kind of experiment: ITC.
Experiment [5] concerns the target T2, 3TD of SETDB1, F332A mutant, as used in ITC (UniProt Q15047 190-410, F332A). Kind of experiment: ITC.
For experiment [6], the target named is T2, 3TD of SETDB1, F332A mutant, as used in …. Kind of experiment: ITC. The source holds these as a separate data set.
Experiment [7] deals with T1, triple Tudor domain (3TD) of SETDB1, …. Kind of experiment: NMR.
Experiment [8] has the same target. The experiment in a line: ITC. This is another data set of the same source.

For KQTARK(Me2)STGGK(Ac)APRKQ [H3K9me2/K14ac peptide in solution (ITC; crystal with W358A), limits not stated], the Kd was 8.1 µM in experiment [1]; 2.6 µM in experiment [2]; 174 µM in experiment [3]; 9.3 µM in experiment [4]; about 350 µM in experiment [5]; 353 µM in experiment [6].

As to KQTARKSTGGK(Ac)APRKQ [monomodified H3K14ac peptide in solution (ITC, NMR; crystal)], the Kd in experiment [7] is 930 µM; in experiment [8] it was over 500 µM.

For the molecule KQTARK(Me)STGGK(Ac)APRKQ [H3K9me1/K14ac peptide in solution (ITC)], the dissociation constant (Kd) in experiment [1] stood at 19.2 µM; in experiment [2], 5.1 µM; in experiment [4], 29.4 µM.

As to KQTARK(Me3)STGGK(Ac)APRKQ [H3K9me3/K14ac peptide in solution (ITC; crystals)], the dissociation constant (Kd) in experiment [1] was determined as 135 µM; in experiment [2], 9.2 µM; in experiment [3], 55.6 µM; in experiment [4], 23.9 µM.
